# Source: article PMC3494873 (EMBO Molecular Medicine, 2012)
# Read-outs that look alike come from different tables or passages of the source.
# B1: Recombinant Fc-his-tag-E-cadherin (extracellular portion) (Fc fusion, UniProt P12830 155-709, looked up)
# chain: DWVIPPISCPENEKGPFPKNLVQIKSNKDKEGKVFYSITGQGADTPPVGVFIIERETGWLKVTEPLDRERIATYTLFSHAVSSNGNAVEDPMEILITVTDQNDNKPEFTQEVFKGSVMEGALPGTSVMEVTATDADDDVNTYNAAIAYTILSQDPELPDKNMFTINRNTGVISVVTTGLDRESFPTYTLVVQAADLQGEGLSTTATAVITVTDTNDNPPIFNPTTYKGQVPENEANVVITTLKVTDADAPNTPAWEAVYTILNDDGGQFVVTTNPVNNDGILKTAKGLDFEAKQQYILHVAVTNVVPFEVSLTTSTATVTVDVLDVNEAPIFVPPEKRVEVSEDFGVGQEITSYTAQEPDTFMEQKITYRIWRDTANWLEINPDTGAISTRAELDREDFEHVKNSTYTALIIATDNGSPVATGTGTLLLILSDVNDNAPIPEPRTIFFCERNPKPQVINIIDADLPPNTSPFTAELTHGASANWTIQYNDPTQESIILKPKMALEVGDYKINLKLMDNQNKDQVTTLEVSVCDCEGAAGVCRKAQPVEAGLQIPA
# How the values were obtained:
# Test in all cases: SPR
# [1] = target: T1, Recombinant his-tag-α6β4 integrin (extracellular portions) (UniProt P23229-2 24-1011; P16144 28-710)
# [2] = target: B1
# [3] = target: T1, Recombinant his-tag-α6β4 integrin …; remark: listed apart in the source
Kd [1],Kd [2],Kd [3],Binder
2.03 nM,29 nM,,"Recombinant angiopoietin-like 6 (ligand, UniProt Q8NI99 21-470, looked up) RAGAPRCTYTFVLPPQKFTGAVCWSGPASTRATPEAANASELAALRMRVGRHEELLRELQRLAAADGAVAGEVRALRKESRGLSARLGQLRAQLQHEAGPGAGPGADLGAEPAAALALLGERVLNASAEAQRAAARFHQLDVKFRELAQLVTQQSSLIARLERLCPGGAGGQQQVLPPPPLVPVVPVRLVGSTSDTSRMLDPAPEPQRDQTQRQQEPMASPMPAGHPAVPTKPVGPWQDCAEARQAGHEQSGVYELRVGRHVVSVWCEQQLEGGGWTVIQRRQDGSVNFFTTWQHYKAGFGRPDGEYWLGLEPVYQLTSRGDHELLVLLEDWGGRGARAHYDGFSLEPESDHYRLRLGQYHGDAGDSLSWHNDKPFSTVDRDRDSYSGNCALYQRGGWWYHACAHSNLNGVWHHGGHYRSRYQDGVYWAEFRGGAYSLRKAAMLIRPLKL"
,,5.3 to 16.8 nM,B1
